Assays:
[1] = biological target: T1, recombinant PR1/HLA-A*0201 monomer (human); assay: ELISA on recombinant PR1/HLA-A2 monomer-coated plates; Hu8F4-2 (Hu2)
T1 construct: Folded recombinant monomer; also called PR1/HLA-A2; PR-1/HLA-A2
Source text: (§1) The inventors used recombinant PR1/HLA-A2 monomer-coated plates to capture the antibody, and anti-human antibodies were used in a colorimetric assay to determine the bound fraction by optical density (OD).

[2] = biological target: T1, recombinant PR1/HLA-A*0201 monomer; assay: ELISA, biotinylated PR1/HLA-A2 on streptavidin, anti-human kappa HRP
Procedure: An ELISA plate was first coated with 100 μl/well of 5 μg/ml streptavidin (Jackson ImmunoResearch, West Grove, Pa.) in PBS. After washing wells with Wash Buffer (PBS containing 0.05% Tween 20) and blocking with Block Buffer, 50 μl/well of 2 μg/ml biotinylated PR1/HLA-A2, which had been provided by Dr. Molldrem, was added. After 30 min incubation at room temperature, the ELISA plate was washed with Wash Buffer. […] After incubating the ELISA plate for 1 hr at room temperature and washing with Wash Buffer, bound antibodies were detected using 100 μl/well of 1/2,000-diluted HRP-conjugated goat anti-human kappa chain polyclonal antibody. After incubating for 30 min at room temperature and washing with Wash Buffer, color development was performed by adding 100 μl/well of ABTS substrate. Color development was stopped by adding 100 μl/well of 2% oxalic acid. Absorbance was read at 405 nm.

[3] = biological target: T1, recombinant PR1/HLA-A*0201 monomer; assay: ELISA on PR1/HLA-A2 monomer-coated plate, anti-human detection [panel B]
Source text: as §1

[4] = biological target: T1, recombinant PR1/HLA-A*0201 monomer; assay: ELISA on recombinant PR1/HLA-A2 monomer-coated plates; Hu8F4-1 (Hu1)
Source text: as §1

[5] = biological target: T2, PR1/HLA-A*0201 on the cell surface (human); assay: flow cytometry, 8F4 staining of MDA-MB-231 cells after 24 h with NE
T2 construct: also called PR1-pulsed T2 cells; PR1/HLA-A2 on HLA-A2+ AML blasts
Procedure: (§2) Mean 6 SEM fold increase of the MFI of PR1/HLA-A2 versus unpulsed cells is shown from duplicate experiments. ANOVA followed by Tukey test was performed using Prism 5.0 software (*p=0.01, **p, 0.0001).

[6] = biological target: T2, PR1/HLA-A*0201 on the cell surface; assay: flow cytometry, 8F4 staining of MDA-MB-231 cells after 24 h with P3
Procedure: as §2

[7] = biological target: T1, recombinant PR1/HLA-A*0201 monomer; assay: SPR (Biacore), 8F4 immobilized/captured, soluble PR1/HLA-A*0201 as analyte
[8] = biological target: T1, recombinant PR1/HLA-A*0201 monomer; assay: SPR (BIAcore 3000), antibody captured on anti-mouse surface, peptide/HLA-A2 as analyte, 25 C; inset table, column KD (the text and the box under the plot round it to 9.9 nM)
Procedure: The test antibodies were captured onto anti-mouse antibody-coated surfaces. The analyte, peptide/HLA-A2, was diluted to 100 nM and tested in duplicate for binding to the antibody-coated surfaces. The analysis was performed at 25 C using PBS, 0.005% Tween-20, 0.1 mg/ml BSA, pH 7.4 as the running buffer.

EC50 [2] [mg/L]	EC50 (read off the curve) [3] [mg/L]	Binder	also measured
0.07	–	Hu8F4-2-AA humanized 8F4 IgG1-AA/kappa antibody (antibody, Hu8F4 VH and VL2 on human IgG1 with Leu234Ala and Leu235Ala (Eu numbering); Signal peptide may be included) heavy: not shown light: DIQMTQSPSSLSASVGDRVTITCKASQDVSTAVAWYQQKPGKAPKLLIYSTSYRYTGVPSRFSGSGSGTDFTFTISSLQPEDIATYYCQQHFITPPTFGGGTKVEIKRTVAAPSVFIFPPSDEQLKSGTASVVCLLNNFYPREAKVQWKVDNALQSGNSQESVTEQDSKDSTYSLSSTLTLSKADYEKHKVYACEVTHQGLSSPVTKSFNRGEC	–
0.05	~0.008	Hu8F4-1 humanized 8F4 IgG1/kappa antibody (Hu8F4 VH and VL1) (antibody, V domains shown, Human IgG1/kappa; also called Hu1-8F4; Hu1) VH: EVQLVESGGGLVQPGGSLRLSCAASGFTFSGYGMSWVRQAPGKGLEWVATISSGGSYTYYPDSVKGRFTISRDNAKNSLYLQMNSLRAEDTAVYYCARHEGGYYGSSPAWFVYWGQGTMVTVSS VL: DIQMTQSPSSLSASVGDRVTITCKASQDVSTAVAWYQQKPGKAPKLLIYSTSYRYTGVPSRFSGSGSGTVFTFTISSLQPEDIATYYCQQHFITPPTFGGGTKVEIKR	Kd [4]: 7.7 nM

The remaining lines, values behind:

Binder	EC50 [2] [mg/L]	EC50 (read off the curve) [3] [mg/L]	also measured
Hu8F4-2 humanized 8F4 IgG1/kappa antibody (Hu8F4 VH and VL2) (antibody, VL2 has Asp instead of Val at position 70 of VL1; also called Hu2-8F4; Hu2) heavy: not shown light: DIQMTQSPSSLSASVGDRVTITCKASQDVSTAVAWYQQKPGKAPKLLIYSTSYRYTGVPSRFSGSGSGTDFTFTISSLQPEDIATYYCQQHFITPPTFGGGTKVEIKRTVAAPSVFIFPPSDEQLKSGTASVVCLLNNFYPREAKVQWKVDNALQSGNSQESVTEQDSKDSTYSLSSTLTLSKADYEKHKVYACEVTHQGLSSPVTKSFNRGEC	0.07	~0.008	Kd [1]: 7.8 nM
8F4 mouse monoclonal antibody (IgG2a-kappa, anti-PR1/HLA-A*0201) (antibody, V domains shown, In the flow cytometry and confocal assays the antibody carried an Alexa Fluor 647 label; the letters do not carry it., Mouse IgG2a-kappa from hybridoma; Used with Alexa-647 label in flow cytometry and confocal assays; also called mouse 8F4; 8F4-4) VH: EVQLVESGGDLVKPGGSLKLSCAASGFTFSGYGMSWVRQTPDKRLEWVATISSGGSYTYYPDSVKGRFTISRDNAKNTLYLQMSSLKSEDTAMYYCARHEGGYYGSSPAWFVYWGQGTLVTLSA VL: DIVMTQSHKFMSTSVGDRVSITCKASQDVSTAVAWYQQKPGQSPKLLIYSTSYRYTGVPDRFTGSGSGTVFTFTINSVQAEDLAVYYCQQHFITPPTFGGGTKLEIK	–	–	fold increase in PR1/HLA-A2 (8F4 MFI) versus unpulsed cells [5]: 2.5 fold; fold increase in PR1/HLA-A2 (8F4 MFI) versus unpulsed cells [6]: 3 fold; Kd [7]: 9.9 nM; Kd [8]: 9.85 nM
Ch8F4 chimeric 8F4 IgG1/kappa antibody (antibody, V domains shown, Mouse 8F4 VH/VL on human gamma-1 and kappa constant regions) VH: EVQLVESGGDLVKPGGSLKLSCAASGFTFSGYGMSWVRQTPDKRLEWVATISSGGSYTYYPDSVKGRFTISRDNAKNTLYLQMSSLKSEDTAMYYCARHEGGYYGSSPAWFVYWGQGTLVTLSA VL: DIVMTQSHKFMSTSVGDRVSITCKASQDVSTAVAWYQQKPGQSPKLLIYSTSYRYTGVPDRFTGSGSGTVFTFTINSVQAEDLAVYYCQQHFITPPTFGGGTKLEIKR	0.054	~0.008	–
